Measured values from patent EP4722237A1, “METHOD FOR DETECTING BIOLOGICAL ACTIVITY OF INSULIN OR ANALOGUE THEREOF AND KIT” (Sunshine Lake Pharma Co., Ltd., priority 2023, dated 2024).

Columns and labels:
[1] = target: insulin IR β receptor (Homo sapiens, UniProt P06213); assay: HTRF kit method (insulin receptor phosphorylation); format: cell-based; details: specificity comparison, Figure 6
From the text: Currently, commercial kits such as HTRF (homogeneous time-resolved fluorescence) and AlphaElisa are commonly used to assess insulin activity. These assays measure insulin IR β receptor phosphorylation levels to characterize insulin's cellular bioactivity. On the one hand, commercial test kits such as HTRF and AlphaElisa are expensive and have high detection costs; on the other hand, technical means such as HTRF and AlphaElisa are relatively complicated to operate, usually requiring the addition of insulin drugs to co-incubate with cells, then adding lysis buffer for incubation and lysis, and then adding the corresponding phosphorylated antibody solution for incubation, and finally testing. Under normal circumstances, the sample volume of each step of these kits needs to be controlled to 4~8 µl, which requires a high level of operational skills of the analyst.
Two different analysts used the same batch of test products (prepared in 6 parallel portions) and reference products to perform tests using the HTRF kit method on different dates.

[2] = target: T1, insulin receptor B (Homo sapiens, UniProt P06213); assay: Luciferase reporter gene detection method (HEK293/IRB-STAT5b-03-Luciferase cells, luminescence signal); format: cell-based; details: after stimulation of cells
T1 construct: expressed in transfected cells; host or cells: HEK293 (HEK293-IRB monoclonal line; HEK293/IRB-STAT5b-03-Luciferase 001#clone)
Procedure: ① 0.6 mM insulin glargine reference solution: An appropriate amount of insulin glargine reference was weighed, dissolved completely in 0.01 M HCL and diluted to 0.6 mM, and mixed thoroughly.
② 0.6 mM Insulin Glargine Test Solution: An appropriate amount of insulin glargine injection solution was taken.
③ 15000 nM Reference/Test Solution Stock Solution: 780 µl of 0.01 M hydrochloric acid solution was added to 20 µl of a 0.6 mM insulin glargine reference/test solution and mixed thoroughly.
④ […] control/test solution: 780 µl of DMEM medium containing 1% FBS (fetal bovine serum) was added to 20 µl of a 15000 nM reference/test solution.
⑤ Serial dilutions of control/test compounds: Dilutions were performed in a 96-well plate according to the method shown in Table 1.
The culture flask was taken out of the incubator, the culture medium was discarded, and 2 ml of DPBS (sterile saline) buffer was added and gently washed twice. 1 ml of DPBS and 1 ml of trypsin solution were slowly added along the cell-free side of the flask to digest the cells for approximately 2 min. […]
After 15 h of incubation, the 384-well plate was removed from the incubator and allowed to stand at room temperature for approximately 5 min. […] After 3 minutes, the luminescence signal was detected in the LUM mode on a multi-functional microplate reader. […]

In the case of liraglutide, the “response in HTRF kit assay” value [1] is reported as “no response” and the dose-effect relationship [2] is reported as “no obvious dose-effect relationship”.
